The record followed here is paper PMC2266796.

Holding throughout (assay): SEC-MALS; 100 ug purified Strep-tagged PfPdx1 on Superdex 200 10/30 with static light scattering (miniDAWN Tristar); 100 mM Tris-HCl pH 8.0, 150 mM NaCl, no amino acid added
Test [1] deals with PfPdx1 K83A (P. falciparum) (UniProt C6KT50).
Test [2] has as its target PfPdx1 ERR (E136A/R139A/R140A) triple mutant (P. falciparum) (UniProt C6KT50).
Test [3] has as its target PfPdx1 D26A (P. falciparum) (UniProt C6KT50).

One may read the stoichiometry N as the number of molecules, sites or subunits per partner or assembly. In test [1], “PfPdx1 K83A (from UniProt C6KT50 1-301) (enzyme)” gave a stoichiometry N of 12.
In turn, “PfPdx1 ERR (E136A/R139A/R140A) triple mutant (from UniProt C6KT50 1-301) (enzyme)” yielded a stoichiometry N in test [2] of 12.
As to “PfPdx1 D26A (from UniProt C6KT50 1-301) (enzyme)”, in test [3], the stoichiometry N came to 12.
